According to the DeepSol protein solubility set:

Experiment: soluble on expression in E. coli; label from the status in PepcDB or PDB records

Sequence | soluble on expression in E. coli
MSLKKLIAVAVLSACGSLAHANTNIPNYNTDAHLYEFTQTYDLVVPKGSQGQTNLWVPLPFNGEYQQVKSIHFEGNYMNAYVTENNKYGAKTLFATWNKDAQKRDLKVMMVIETKDREPMVKGALENYTPPKDIQYSVDVQEYLKATPHIKTDGIVKEFPDKILGKETNPLKKAELIHHWFVKNMERDNSVLGCGDGDVEKILTTGVLKGKCTDINSVFVALARAAGIPAREIFGIRLGAAEKMGKYSKGAFGSANEQGIANVSGGQHCRAEFYLAGFGWVPVDSADVAKMRLAEKKSVEDKDTQAVAKYLFGNWEANWVGFNHARDFDLYPQPELAPINNFGYPYAEVGGDPLNSFDPKEFKYDYVSKKLEGGSHHHHHH | soluble
MGGYGGVKMEGMLKGEGPGPLPPLLQQYVELRDRYPDYLLLFQVGDFYECFGEDAERLARALGLVLTHKTSKDFTTPMAGIPIRAFDAYAERLLKMGFRLAVADQVEPAEEAEGLVRREVTQLLTPGTLTQEALLPREANYLAAIATGDGWGLAFLDVSTGEFKGTLLKSKSALYDELFRHRPAEVLLAPELRENEAFVAEFRKRFPVMLSEAPFEPQGEGPLALRRAQGALLAYARATQGGALSVRPFRLYDPGAFVRLPEASLKALEVFEPLRGQDTLFGVLDETRTAPGRRLLQAWLRHPLLERGPLEARLDRVERFVREGALREGVRRLLFRLADLERLATRLELSRASPRDLAALRRSLEILPELKGLLGEEVGLPDLSGLLEELRAALVEDPPLKVSEGGLIREGYDPDLDALRRAHAEGVAYFLDLEAREKERTGIPTLKVGYNAVFGYYLEVTRPYYEKVPQEYRPVQTLKDRQRYTLPEMKERERELYRLEALIKRREEEVFLALRERARKEAEALREAARILAELDVYAALAEVAVRHGYTRPRFGERLRIRAGRHPVVERRTAFVPNDLEMAHELVLVTGPNMAGKSTFLRQTALIALLAQIGSFVPAEEAELPLFDGIYTRIGASDDLAGGKSTFMVEMEEVALVLKEATERSLVLLDEVGRGTSSLDGVAIATALAEALHERRCYTLFATHYFELTALALPRLKNLHVAAKEEEGGLVFYHQVLPGPASKSYGVEVAEMAGLPKEVVERARALLSAMAARREGALEEVLERLLALDPDRLTPLEALRFLHELKALALGLPLGSMKG | soluble
MSLKAVIGISASEVTIQSGPFMGEPRTYVNAAYVDSVLKNGGIPLVIPFTAGGEEMAFKQLDLVDGLILSGGHDLNPHLYGEEIDQKSGETWPDRDAFDMALLKRAEETGKPVLGICRGAQIINVAHGGSMWQDLSLRPGNTLKHMQAIRPDVGTHVVKIKSGTTLKKIMGKSSLMTNSFHHQLIKEVAPDLTESASASDGVTEALESTDGKVIAVQWHPEEMHANPAPEAAIMNRLFKYLIDKAEEEKEGHHHHHH | soluble
MGSDKIHHHHHHMCRILGYLGTPVLLEDLLYAPDSSLLNQTIGAQMLQMLNLAGFGMAAWDPASHDPHLPFRYRTTQVALFDRNLKALAGKLRPGALLAHIRGVPYNSTVQINEQNCHPFRFEGVPLAMAHNGDLAGFREMRFDLAPHVRPEFARQIQGSTDSEWIYALAVSALDDPAGVNEPDAILAAIRRALSILRDARARHGITRSSSTNLMFCDGVNLVAVRFTFDFGRFDAGKLQGTTEYLSMWYTFGRDYGLHDGEWKLTGGAASADSVMVASEPLTRDFATWIEVPEYSALIVRHEGARRRAEIHALEV | not soluble
MSLKITTEQVCEALDTWVCRPGMTQEQATILITEAFWALKERPNIDVQRVTFNDGEVDQRALGVNRVKIFERWKAIDTRDKRDKFTALIPAIMEAIRISDFRLYCEITDGKSITYMIAGLNKEYGDVVESGLLFADPVVVERETDELIEKAIAFKHAYRQQYQYYFADKQMSARGAYEYRCTTMGEGHHHHHH | soluble
MKENDLIPNVKVMIDVRNMNNISDTDGSPNDFTSIDTHELFNNKKILLISLPGAFTPTCSTKMIPGYEEEYDYFIKENNFDDIYCITNNDIYVLKSWFKSMDIKKIKYISDGNSSFTDSMNMLVDKSNFFMGMRPWRFVAIVENNILVKMFQEKDKQHNIQTDPYDISTVNNVKEFLKNNQL | soluble
MSLTTDVKDELSRLVVKSVSARRAEVTSLLRFAGGLHIVGGRVVVEAELDLGSIARRLRKEIFELYGYTAVVHVLSASGIRKSTRYVLRVANDGEALARQTGLLDMRGRPVRGLPAQVVGGSIDDAEAAWRGAFLAHGSLTEPGRSSALEVSCPGPEAALALVGAARRLGVGAKAREVRGADRVVVRDGEAIGALLTRMGAQDTRLVWEERRLRREVRATANRLANFDDANLRRSARAAVAAAARVERALEILGDTVPEHLASAGKLRVEHRQASLEELGRLADPPMTKDAVAGRIRRLLSMADRKAKVDGIPDTESVVTPDLLEDAEGHHHHHH | soluble
SGDRSMVEVLADHPGELVRTDSPNFLSSVLPTHWRSNKTLPIAFKVVALGDVPDGTLVTVMAGNDENYSAELRNATAAMKNQVARFNDLRFVGRSGRGKSFTLTITVFTNPPQVATYHRAIKITVDGPREPRRHRQKLDD | soluble
AHHHHHHGSVKFCPKCGSIMIPDRRRGVFVCRKCGYEEPINPEDTKAYRRTEEVKHRPDEGVVVIEQEVSTLPTAKVTCPKCGHNEAWWWELQTRAGDEPSTIFYKCKKCGYVWRSYE | soluble
MTAATATANGNHSIEDPVVMKVQAASPIQETDFFENLYQMECFRTGEFYLKSGQMTPIYIDLRRIMSSPRVLRMAAQAMCEKIVASNLKFDYVVGVPYAALPLATLVSDILNVPMLMKRKEAKAYGTKQLIEGVYQPGGTVLLVEDVVTSGESIRETAEAIRNENLLVTDAIAVLDRQQGATANLAEDNLNFLSFLTMEKILDGLITKNEMTEERKHEIIAHLAKPF | soluble
MDIRARTKIIDIYSNLKYKKPLKSFQKILTTSDSDNCEDFFNIGLNIDKNKITAIGFDGDGCIISTIATELSIKAIENKTINQAKKILSDLIATYKDKNSANQVVEELKLLIEMNVTEKRLQCLLLTPSNLLQWFKNF | not soluble
MLGTISMRFFATKVVAPRASVAASTPQVPLGMNINPYAMFIKENFKANTSDMKRTDLMKELSGKWKALSISEKDKYTELSKNYNAQKLDDFMKLSTEEQKKLVDSAKEKKAERASRRHAKERREKRKQSGRPSVPPSAYALFIKEKLSGAGMESKEKMKEAVAQWKAFTDSQKKKYTDEAKKLKDEYHVVLQKWEAEQKENADQ | not soluble
MSLGDLPLGWHKLHLKSNERSAECGLIITPARLSTADKYLDSPRSGVMAQIYSVRSTLSWGMGDFNDLGNLASVVAQDGADFLLINPMHAAEPLPPTEDSPYLPTTRRFINPIYIRVEDIPEFNQLEIDLRDDIAEMAAEFRERNLTSDIIERNDVYAAKLQVLRAIFEMPRSSEREANFVSFVQREGQGLIDFATWCADRETAQSESVHGTEPDRDELTMFYMWLQWLCDEQLAAAQKRAVDAGMSIGIMADLAVGVHPGGADAQNLSHVLAPDASVGAPPDGYNQQGQDWSQPPWHPVRLAEEGYIPWRNLLRTVLRHSGGIRVDHVLGLFRLFVMPRMQSPATGTYIRFDHNALVGILALEAELAGAVVIGEDLGTFEPWVQDALAQRGIMGTSILWFEHSPSQPGPRRQEEYRPLALTTVTTHDLPPTAGYLEGEHIALRERLGVLNTDPAAELAEDLQWQAEILDVAASANALPAREYVGLERDQRGELAELLEGLHTFVAKTPSALTCVCLVDMVGEKRAQNQPGTTRDMYPNWCIPLCDSEGNSVLIESLRENELYHRVAKASKRDEGHHHHHH | not soluble
SLSESFPLLEKYRIGKVIGDGNFAVVKECVDRYTGKEFALKIIDKAKCCGKEHLIENEVSILRRVKHPNIIMLVEEMETATDLFLVMELVKGGDLFDAITSSTKYTERDGSAMVYNLANALRYLHSLSIVHRDIKPENLLVCEYPDGTKSLKLGDFGLATVVEGPLYTVCGTPTYVAPEIIAETGYGLKVDVWAAGVITYILLCGFPPFRSENNLQEDLFDQILAGKLEFPAPYWDNITDSAKELISQMLQVNVEARCTAGEILSHPWVSDDASQENNMQAEVTGKLKQHFNNALPKQNSTTTGVSVIMNTALDK | soluble
MNVTLLVADAVWSNIESTGSVTEEQLSILQLLFGKNLEKATRIIDKRGVKKISGLPSGRSIFQVVGESQKREEYLCFPGDYCGCYSFFYDVVSRGEHQCCKHQLAARLASSLGTYNEIEVSDDHLALMLSKI | not soluble
MALTLAKNQTISLEKTAGTGLKKVSMGLGWDPEKASGFFGKLLGGGGGDIDLDASCIMLDADKKPLDLVWFRQLQSRDGAILHSGDNRTGEGAGDDETISVDLEKLPATVKYLVFTVNSFTGQNFEKVANAYCRIVDLGTRNELGRFDLSEKGQHTGVVMSYLSRTPSGWDFTAVGQATNGRTADDLVELAIGAVRA | not soluble
MIAGPLGRASELHRYEGNQTVVFCAGGVGLPPVYPIMREHLRLGNHVTLISGFRAKEFLFWTGDDERVGKLKKEFGDQLSLIYTTNDGSYGVKGFVTGPLEEMMKANQEGKGRSIAEVIAIGPPLMMRAVSDLTKPYGVKTVASLEHHHHHH | not soluble
MSLKNPPQILMPDVVYTDLKKPILVHIKDDESSIKNVQIILHKDDNTSAMVIADEKISNLKDITLQVALPKFGYKENVKSFVLEVIAKDSSFWNFFSGNEARKQIAVLVDNTAPKINIISNSYQIEQGGAGAVVFKADDANLDKVYIETNKGKIFKATPYVKEGYYAALIAWDARDEEFRAFVIATDKAGNISKERIRYYFVNRKYRVSNINLTDKFLDGKIENLANQYAPKDNNLNRYEKFKFVNETLRNSNEKLIHEITSKVPEEKIDNFDLNLFLPLKNGMKVADFADHRYYSYNGQFVSDSYHMGLDLASVAQAPIISNNAGKVVFAAENGIYGLNLIVYHGFGVYSLYGHCSSKNVDLDEMINKQSIIGKTGTSGLALGDHLHFGVLVQGVETRPEQWQDKKWIENNIYNVLNDGKKIILGKNEGHHHHHH | soluble
MIQKTISETSPPPMFSDEEILTEDEIEEYLDNLKSKLPSFVIILLKNNLRGKRVTKKQLDKIVERITEVLSKGRRDDKTEELNKKLQTLEQKLDAIMKLTTMAVSTKTSEEIEKIKTNEKIEIENAPIKIKSEEKPEKPVEIEVSKKKETMDTGKKTETEEKVKEIEVPKPVEKTHEKVEETKTKGEIKKEVKKEVKLKKYELPKESPMGGSFMTPIEEEKEYRLNDIPEDAVSMTLVFKWLEFLISRGGMTYLPDILDYYNKIGWISNRVILKLLRFAKNMKITFDEEELRPRDKLSPSDHIVSLLYIEKLAGRPIDSEILEMLEIEIRRIKKWAIELQSI | not soluble
MSPKSKSTNKTYTIVIKLGTSSICDEKTHEPLISNLSLIVETVVKLRKLGHNVVLVSSGGIAMGLRRLDLPKRPSKLSAVQAIAAVGQGRLISLWDTLFTQLRQPIAQVLITRNDIAERSQYVNAANTISELLHFGVVPIVNENDTLSVQEIRFGDNDTLSAITAGMINADYLFLLTDVDCLYTDNPRTNPDAKPILKIHDTSMVNANVSTPGSGVGTGGMKTKLIAADLGTSSGVNVIICRGSKPSSIFDIIRQESSDNKNESVELPLHTHFVAKKQGRIRDRHFWLLHGLKSHGSLEIDRGAFEAITRTNRAGLLPVGVTKVHGHFSAHQAVTVIYNGEEIGRALVNYSSTEIDLIKGKRSKEIASILGYNETEYVAYRDYLVVHGLNSHHDSQVSSDEH | soluble
LVKVKREIIRMDHPAIRPEAGRAPAVDAATLRRWLAQGRDDQGRELVMLDTRNAFEVEVGTFRGALDWRIERFTQFPQAVRDNQAALAGKTVVSFCTGGIRCEKAAIYMAEAGIEHVYQLEGGILKYFEETDGAGFDGACFVFDERVALDAALAPQ | not soluble
MAHHHHHHMAAACGCRSLLSRDMPRRFPMCVASGTMCRRLCDCRMEGEERRELRERRCQESRWASCRRAHCPPSPAPPCRAPSITPQHRSRRHQHTARQRMPPPSRVRPEGTRPLLRSEESHRVAQRRAQNLLADSAHDTGQWTLSVCVVEDTAVESLLSSGWTVG | not soluble
